The supplement of paper PMC9112550, “Optimization of the antimicrobial peptide Bac7 by deep mutational scanning” (BMC Biology, 2022)

System: Escherichia coli TOP10
Assay: shrunken log2 fold change of peptide-encoding DNA abundance (4.5 h post-induction vs induction); higher = less antimicrobial activity (less host growth inhibition)
Conditions: time post-induction: 4.5 h; library: site-saturation at positions 5, 18, 19, 20
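Further: peptides expressed intracellularly from a pBAD plasmid library in pooled LB shake-flask culture, induced with 0.3% L-arabinose, DNA abundance read by NGS, three biological replicates, DESeq2 with apeglm shrinkage.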

Row | Sequence | shrunken log2 fold change
1 | RRIRSRPPRLPRPRPRPKYFPRP | -0.146
2 | RRIRTRPPRLPRPRPRPIFRPRP | 0.00202
3 | RRIRWRPPRLPRPRPRPHEYPRP | -0.147
4 | RRIRNRPPRLPRPRPRPVMWPRP | 0.351
5 | RRIRIRPPRLPRPRPRPECHPRP | 0.0255
6 | RRIRDRPPRLPRPRPRPWQDPRP | -0.0397
7 | RRIRWRPPRLPRPRPRPWKFPRP | 0.0588
8 | RRIRIRPPRLPRPRPRPVKFPRP | -0.0946
9 | RRIRVRPPRLPRPRPRPYLKPRP | -0.0795
10 | RRIRPRPPRLPRPRPRPMESPRP | 0.0152
11 | RRIRTRPPRLPRPRPRPAYDPRP | -0.251
12 | RRIRPRPPRLPRPRPRPFSRPRP | -0.099
13 | RRIRHRPPRLPRPRPRPWPCPRP | -0.027
14 | RRIRLRPPRLPRPRPRPDNRPRP | -0.0526
15 | RRIRCRPPRLPRPRPRPHCFPRP | -0.429
16 | RRIRWRPPRLPRPRPRPSCMPRP | 0.11
17 | RRIRHRPPRLPRPRPRPNGEPRP | 0.164
18 | RRIRDRPPRLPRPRPRPKRMPRP | 0.0969
19 | RRIRNRPPRLPRPRPRPCQDPRP | -0.0893
20 | RRIRTRPPRLPRPRPRPQWSPRP | -0.431

Row | Sequence | shrunken log2 fold change
21 | RRIRMRPPRLPRPRPRPDKKPRP | -0.0148
22 | RRIRLRPPRLPRPRPRPSEFPRP | -0.855
23 | RRIRERPPRLPRPRPRPLWIPRP | -0.558
24 | RRIRSRPPRLPRPRPRPWVDPRP | -0.0314
25 | RRIRCRPPRLPRPRPRPFLSPRP | -0.28
26 | RRIRARPPRLPRPRPRPFVVPRP | -0.312
27 | RRIRSRPPRLPRPRPRPEVWPRP | 0.779
28 | RRIRTRPPRLPRPRPRPVKIPRP | -1.21
29 | RRIRNRPPRLPRPRPRPSCSPRP | -0.384
30 | RRIRDRPPRLPRPRPRPEGSPRP | 1.06
31 | RRIRPRPPRLPRPRPRPACCPRP | 0.405
32 | RRIRYRPPRLPRPRPRPPCLPRP | -0.288
33 | RRIRLRPPRLPRPRPRPLWSPRP | 0.0537
34 | RRIRHRPPRLPRPRPRPGCIPRP | -1.21
35 | RRIRRRPPRLPRPRPRPLCFPRP | 0.898
36 | RRIRIRPPRLPRPRPRPDPRPRP | 0.132
37 | RRIRVRPPRLPRPRPRPCNQPRP | 0.0169
38 | RRIRQRPPRLPRPRPRPRGPPRP | 0.0418
39 | RRIRRRPPRLPRPRPRPWIEPRP | -0.0568
40 | RRIRLRPPRLPRPRPRPTHEPRP | 0.361

Row | Sequence | shrunken log2 fold change
41 | RRIRRRPPRLPRPRPRPMQDPRP | 0.452
42 | RRIRCRPPRLPRPRPRPNQRPRP | -0.093
43 | RRIRVRPPRLPRPRPRPAKMPRP | 0.0161
44 | RRIRKRPPRLPRPRPRPWGNPRP | -0.0638
45 | RRIRHRPPRLPRPRPRPHRKPRP | -0.351
46 | RRIRMRPPRLPRPRPRPYFTPRP | -0.362
47 | RRIRDRPPRLPRPRPRPPSNPRP | 0.137
48 | RRIRLRPPRLPRPRPRPWEAPRP | -0.229
49 | RRIRWRPPRLPRPRPRPFQSPRP | -0.0153
50 | RRIRKRPPRLPRPRPRPLWVPRP | 0.0688
51 | RRIRLRPPRLPRPRPRPLFVPRP | -0.329
52 | RRIRYRPPRLPRPRPRPSTAPRP | -0.0926
53 | RRIRVRPPRLPRPRPRPIKCPRP | -0.633
54 | RRIRGRPPRLPRPRPRPEFCPRP | 1.23
55 | RRIRRRPPRLPRPRPRPLRRPRP | 0.654
56 | RRIRDRPPRLPRPRPRPYKGPRP | -0.00133
57 | RRIRPRPPRLPRPRPRPFLKPRP | -0.159
58 | RRIRKRPPRLPRPRPRPPGCPRP | 0.955
59 | RRIRMRPPRLPRPRPRPATSPRP | 0.654
60 | RRIRKRPPRLPRPRPRPIWYPRP | -0.26
